The record followed here is the MegaScale stability set (Tsuboyama et al. 2023).

B1: EEHEE_rd3_0130 (parent)
chain: TKIIVNGKTFTAPTEEEAQKIAEKLAKKAGLTVHKKNGTFELK
B2: r11_951_TrROS_Hall (parent)
chain: KKKYVIKVYFEDTGKEVEIEAESKEEALEAAKRLAEELGLKIKKVEIYP

The variants in the first data set derive from B1. The data set is described as follows: folding stability dG (cDNA display proteolysis); higher = more stable. The conditions noted are these: PBS, room temperature.
For the variant TKFIVNGKTFTAPTEEEAQKIAEKLAKKAGLTVHKKNGTFELK [I3F], the “folding stability dG” value was 0.035 kcal/mol.
Same read-out and setting: with TKEIVNGKTFTAPTEEEAQKIAEKLAKKAGLTVHKKNGTFELK [I3E] the figure was -0.908 kcal/mol; with TKHIVNGKTFTAPTEEEAQKIAEKLAKKAGLTVHKKNGTFELK [I3H], -0.416 kcal/mol; with TKVIVNGKTFTAPTEEEAQKIAEKLAKKAGLTVHKKNGTFELK [I3V], 0.523 kcal/mol.
On the same count and under the same terms, with TKTIVNGKTFTAPTEEEAQKIAEKLAKKAGLTVHKKNGTFELK [I3T] the figure was -0.896 kcal/mol.
Turning to TKRIVNGKTFTAPTEEEAQKIAEKLAKKAGLTVHKKNGTFELK [I3R], the “folding stability dG” value was -0.394 kcal/mol.

The variants in a further data set derive from B2. The data set is described as above. The conditions noted are these: PBS, room temperature.
KKKYVIKVYFEDTGKEVEIEAESKEEALEAHKRLAEELGLKIKKVEIYP [A31H]: the “folding stability dG” value worked out at 2.62 kcal/mol.
Regarding KKKYVIKVYFEDTGKEVEIEAESPEEALEAAKRLAEELGLKIKKVEIYP [K24P], the “folding stability dG” value is 4.19 kcal/mol.
For KKKYVIKVYFEDTGKEVFIEAESKEEALEAAKRLAEELGLKIKKVEIYP [E18F], the “folding stability dG” value was determined as 4.21 kcal/mol.
For KKKYVIKVYFEDTGKEVEIEAESKEEALEAAKRLAEELGLSIKKVEIYP [K41S], the “folding stability dG” value turned out to be 4.41 kcal/mol.
Turning to KKKYVIKVYFEDTGKEVEIEAESKEEALEAAKRLAEELGLIIKKVEIYP [K41I], the “folding stability dG” value was found to be 4.19 kcal/mol.
Same read-out and setting: with KKKYVIKVYIEDTGKEVEIEAESKEEALEAAKRLAEELGLKIKKVEIYP [F10I] the figure was 3.28 kcal/mol; with KKKYVIKVYFEDTGKEVEIEGESKEEALEAAKRLAEELGLKIKKVEIYP [A21G], 4.28 kcal/mol.
The same measure, in the same setting: with KKKYEIKVYFEDTGKEVEIEAESKEEALEAAKRLAEELGLKIKKVEIYP [V5E] the figure was 3.42 kcal/mol; with KKKYVICVYFEDTGKEVEIEAESKEEALEAAKRLAEELGLKIKKVEIYP [K7C], 3.91 kcal/mol; with KKKYVIKVYFEDTGKEVEIEAESKEEALEAAKWLAEELGLKIKKVEIYP [R33W], 4.65 kcal/mol.
For KKKYVIKVYFEDTGKEVEIEAESKEEALEAAKRLAEELGLKIKKVWIYP [E46W], the “folding stability dG” value worked out at 4.47 kcal/mol.
Same read-out and setting: with KKKYVIKVYFEDTGKEVEIEAESKEEALEAAKRLAEELGLKIKKVQIYP [E46Q] the figure was 4.26 kcal/mol; with KKKYVIKVYFEDTGKEVEIEAESKEEALEAAKRLAEELGLKIVKVEIYP [K43V], 4.22 kcal/mol; with KKKYVIKVYFEDTGKEVEIEAESKEEALEAAKRLAMELGLKIKKVEIYP [E36M], 4.66 kcal/mol.
The same measure, in the same setting: with KKKYVIKVYFEDTGKEVEIEAESKEEALEAAKRLAIELGLKIKKVEIYP [E36I] the figure was 4.61 kcal/mol; with KKKYVIKVYFEDTGKEVEIEAESKEEALEAAKRLASELGLKIKKVEIYP [E36S], 4.53 kcal/mol; with KKKYVIKVYFEDTGKEVEIEAESKEEALEAAKRLAEELGLKIKKREIYP [V45R], 2.97 kcal/mol.
As to KKKYVIKVYFEDTGKEVEIEAEAKEEALEAAKRLAEELGLKIKKVEIYP [S23A], the “folding stability dG” value worked out at 4.08 kcal/mol.
On to KKKYVIKVYFEDTGKEVEIEAELKEEALEAAKRLAEELGLKIKKVEIYP [S23L], for which the “folding stability dG” value came out at 4.01 kcal/mol.
With KKKYVIKVYFEDTGKEVEIEAEEKEEALEAAKRLAEELGLKIKKVEIYP [S23E], the “folding stability dG” value was 4.22 kcal/mol.
The same measure, in the same setting: with KKKYVIKVYFEDTGKEVEIEAESKEEALEAAKRLAEELGWKIKKVEIYP [L40W] the figure was 4.72 kcal/mol; with KKKYVIKVYFEDTGKESEIEAESKEEALEAAKRLAEELGLKIKKVEIYP [V17S], 4.23 kcal/mol; with KKKYVIKGYFEDTGKEVEIEAESKEEALEAAKRLAEELGLKIKKVEIYP [V8G], 2.51 kcal/mol.
Consider KKKYVIKLYFEDTGKEVEIEAESKEEALEAAKRLAEELGLKIKKVEIYP [V8L], for which the “folding stability dG” value stood at 4.25 kcal/mol.
As to KKKYVIKEYFEDTGKEVEIEAESKEEALEAAKRLAEELGLKIKKVEIYP [V8E], the “folding stability dG” value was determined as 0.978 kcal/mol.
Still for that read-out and setting: with KKKYVIKVYFEDTGKEVEIEAESKEEALEAAKRYAEELGLKIKKVEIYP [L34Y] the figure was 4.45 kcal/mol; with KKKYVIKVYFEDTGKEVEISAESKEEALEAAKRLAEELGLKIKKVEIYP [E20S], 4.22 kcal/mol.
On the same count and under the same terms, with KKKYVIKVYFEDTGKEVEIYAESKEEALEAAKRLAEELGLKIKKVEIYP [E20Y] the figure was 4.56 kcal/mol.
Same read-out and setting: with PKKYVIKVYFEDTGKEVEIEAESKEEALEAAKRLAEELGLKIKKVEIYP [K1P] the figure was 4.64 kcal/mol; with KKKYVIKVYFEDTTKEVEIEAESKEEALEAAKRLAEELGLKIKKVEIYP [G14T], 4.41 kcal/mol.
KKKYVIKVYFEDTDKEVEIEAESKEEALEAAKRLAEELGLKIKKVEIYP [G14D]: the “folding stability dG” value was found to be 4.37 kcal/mol.
KKKYVIKVYFEDHGKEVEIEAESKEEALEAAKRLAEELGLKIKKVEIYP [T13H]: the “folding stability dG” value came out at 4.33 kcal/mol.
Still for that read-out and setting: with KKKYVIKVYFEDTGKEVEIEAESKEEALEAAKRLEEELGLKIKKVEIYP [A35E] the figure was 4.05 kcal/mol; with KKKYVIKVYFEDTGKNVEIEAESKEEALEAAKRLAEELGLKIKKVEIYP [E16N], 4.44 kcal/mol; with KKKYVIKVYFEDTGKTVEIEAESKEEALEAAKRLAEELGLKIKKVEIYP [E16T], 4.45 kcal/mol.
Regarding KKKYVIKVYFEDTGKWVEIEAESKEEALEAAKRLAEELGLKIKKVEIYP [E16W], the “folding stability dG” value came out at 4.48 kcal/mol.
As for KKKYVIKVYFEDTGKVVEIEAESKEEALEAAKRLAEELGLKIKKVEIYP [E16V], the “folding stability dG” value stood at 4.16 kcal/mol.
Regarding KKKYVIKVYFEDTGKEVEIEAESKEEALENAKRLAEELGLKIKKVEIYP [A30N], the “folding stability dG” value was found to be 4.41 kcal/mol.
Same read-out and setting: with KKKYVIKVYFEDTGKEVEIEAESKEEALEAAKRLAEELGLKEKKVEIYP [I42E] the figure was 2.5 kcal/mol.
The same measure, in the same setting: with KKKYVIKVYFEDTGKEVEIEAESKEEALEAAKRLAEEAGLKIKKVEIYP [L38A] the figure was 4.52 kcal/mol; with KKKYVIKVYFEDTGKEVEIEAESKEEALEAAKRLAEELGLKIKKVEIIP [Y48I], 4.43 kcal/mol; with KKKYVIKVYFEDTGKEVEIEAESKEEALEAAKRLAEELGLKIKKVEIDP [Y48D], 4.13 kcal/mol.
The same measure, in the same setting: with KKKYVIKVYFEDTGKEVEIEAESKEEALEAAKRLAEELGLKIKKVEIKP [Y48K] the figure was 4.2 kcal/mol; with KKKYVIKVYFEDTGKEVEIEAESKDEALEAAKRLAEELGLKIKKVEIYP [E25D], 4.58 kcal/mol.
Regarding KKKYVIKVYFEDTGKEVEIEAESKEEALEAAKRLAEKLGLKIKKVEIYP [E37K], the “folding stability dG” value came to 4.68 kcal/mol.
On the same count and under the same terms, with KKKYVIKVYFEDTGKEVEIEAESKEEALEAAKRLAESLGLKIKKVEIYP [E37S] the figure was 4.71 kcal/mol.
Turning to KKKYVIKVYFEDTGKEVEIEAESKENALEAAKRLAEELGLKIKKVEIYP [E26N], the “folding stability dG” value is 4.33 kcal/mol.
For KKKYVIKVYFEDTGKEVEIEAESKELALEAAKRLAEELGLKIKKVEIYP [E26L], the “folding stability dG” value is 4.46 kcal/mol.
The same measure, in the same setting: with KKKYVIKVYFEDTGKEVEIEAESKEEALEAALRLAEELGLKIKKVEIYP [K32L] the figure was 4.55 kcal/mol; with KKKYVIKVYFEDTGKEVEIEALSKEEALEAAKRLAEELGLKIKKVEIYP [E22L], 4.26 kcal/mol.
Still for that read-out and setting: with KKKYVIKVYFEDTGKEVEIEAESKEEALPAAKRLAEELGLKIKKVEIYP [E29P] the figure was 3.83 kcal/mol.
